{"source": "patent US20220023420A1", "about": "(PRECIGEN, published 2022)", "binders": {"B1": {"name": "Anti-PD-1(VH6-VL5) IgG4-TGFβRII (other)", "heavy": "QVQLVESGGGVVQPGRSLRLDCKASGITFSNSGMHWVRQAPGKGLEWVAVIWYDGSKRYYADSVKGRFTISRDNSKNTLFLQMNSLRAEDTAVYYCATNDDYWGQGTLVTVSSASTKGPSVFPLAPCSRSTSESTAALGCLVKDYFPEPVTVSWNSGALTSGVHTFPAVLQSSGLYSLSSVVTVPSSSLGTKTYTCNVDHKPSNTKVDKRVESKYGPPCPSCPAPEFLGGPSVFLFPPKPKDTLMISRTPEVTCVVVDVSQEDPEVQFNWYVDGVEVHNAKTKPREEQFNSTYRVVSVLTVLHQDWLNGKEYKCKVSNKGLPSSIEKTISKAKGQPREPQVYTLPPSQEEMTKNQVSLTCLVKGFYPSDIAVEWESNGQPENNYKTTPPVLDSDGSFFLYSRLTVDKSRWQEGNVFSCSVMHEALHNHYTQKSLSLSPGKGGGGSGGGGSIPPHVQKSVNNDMIVTDNNGAVKFPQLCKFCDVRFSTCDNQKSCMSNCSITSICEKPQEVCVAVWRKNDENITLETVCHDPKLPYHDFILEDAASPKCIMKEKKKPGETFFMCSCSSDECNDNIIFSEEYNTSNPD", "light": "not shown", "notes": "also called anti-PD-1 IgG4 antibody (VH6-VL5)-TGFβRII fusion protein; VH6-IgG4(wt)-linker-ECD with VL5"}}, "experiment_in_all_cases": "SPR (Biacore 3000), fusion protein immobilized on CM5, TGF-β injected", "key": {"[1]": {"target": "T1, TGF-β2 (UniProt P61812 303-414)", "T1 sequence (looked up)": "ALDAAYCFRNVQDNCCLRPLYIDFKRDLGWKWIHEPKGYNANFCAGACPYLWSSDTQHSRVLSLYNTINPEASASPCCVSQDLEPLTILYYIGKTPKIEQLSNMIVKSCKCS", "experimental": "(§1) Surface plasma resonance (SPR) analysis was performed using Biacore3000, CM5 chip, an amine-coupling kit, 10×HBS-P running buffer and Glycine for regeneration (GE Healthcare). […] Dissociation was allowed to proceed followed by a pulse of 10 mM Glycine (pH 1.5) for regeneration of the chip surface."}, "[2]": {"target": "T2, TGF-β3 (UniProt P10600 301-412)", "T2 sequence (looked up)": "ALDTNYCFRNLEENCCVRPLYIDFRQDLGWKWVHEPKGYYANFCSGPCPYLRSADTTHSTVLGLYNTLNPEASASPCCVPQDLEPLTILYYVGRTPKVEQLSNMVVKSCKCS", "experimental": "as §1"}, "[3]": {"target": "T3, TGF-β1 (UniProt P01137 279-390)", "T3 construct": "also called TGF-b1", "T3 sequence (P01137 279-390 limits assumed)": "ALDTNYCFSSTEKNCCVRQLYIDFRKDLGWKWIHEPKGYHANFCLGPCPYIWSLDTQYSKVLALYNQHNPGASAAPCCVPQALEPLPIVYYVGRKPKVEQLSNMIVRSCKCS", "experimental": "as §1"}}}
{"binder": "B1", "values": [{"measurement": "Kd", "setting": "[1]", "result": 859, "unit": "pM"}, {"measurement": "Kd", "setting": "[2]", "result": 2.19, "unit": "pM"}, {"measurement": "Kd", "setting": "[3]", "result": 5.22, "unit": "pM"}]}
